Source: patent US10646622B2, “Biologically active implants” (priority 1998, dated 2020)

B1: r-rGH: rat-specific recombinant growth hormone, subcutaneously injected (protein, UniProt P01244 27-216, looked up)
Somatotropin: FPAMPLSSLFANAVLRAQHLHQLAADTYKEFERAYIPEGQRYSIQNAQAAFCFSETIPAPTGKEEAQQRTDMELLRFSLLLIQSWLGPVQFLSRIFTNSLMFGTSDRVYEKLKDLEEGIQALMQELEDGSPRIGQILKQTYDKFDANMRSDDALLKNYGLLSCFKKDLHKAETYLRVMKCRRFAESSCAF

Tested on: fracture of the right tibia
Assay type: in vivo, Sprague Dawley rats
Description: In an experiment with animals, tests were conducted on 60 such animals (5-months-old female Sprague Dawley rats). All test animals were subjected to a standardized fracture of the right tibia. Differently coated titanium wires (1.0 mm in diameter) were then implanted in the repositioned tibiae as intramedullary supports.
Depending on the group assignments as specified below 2 mg/kg of a rat-specific recombinant growth hormone (r-rGH) or a placebo was subcutaneously injected daily for a period of time up to 42 days. At various time points (0 d, 4 d, 7 d, 14 d, 21 d, 28 d, 35 d, and 42 d) and after administration of an anaesthetic inhalant, x-rays were taken in two planes, 1.25 ml of blood was taken from each by the retrobulbar method (deep-frozen at −80° C. (−112° F.)), and their weight and body temperature were measured. On day 42, the fractured and the unfractured tibiae, along with the periosteum, were separately prepared and subjected to biomechanical tests (torsional load-torsional stiffness).
Group Assignments • Group I: Fracture of the right tibia—uncoated implant— • Systemic application of a placebo (control group) • Group II: Fracture of the right tibia—implant coated with poly-D,L-lactide 203— • Systemic application of a placebo • Group III: Fracture of the right tibia—implant coated with poly-D,L-lactide— • Systemic application of (r-rGH) • Group IV: Fracture of the right tibia—implant coated with poly-D,L-lactide and growth factors IGF-I (5%) and TGF-β (1%)— • Systemic application of a placebo • Group V: Fracture of the right tibia—implant coated with poly-D,L-lactide and growth factors IGF-I (5%) and TGF-β (1%)— • Systemic application of (r-rGH)
The coated implants were produced as indicated in Example 1.

| Molecule | differences in weight and temperature among placebo groups I, II and IV (rat, in vivo) | body weight increase (2 mg/kg s.c. daily, compared to placebo, p<0.05) [%] | maximum torsional load (day 42, systemic 2 mg/kg s.c. daily with implant coated with poly-D,L-lactide (Group III), p<0.05) |
| --- | --- | --- | --- |
| poly(D,L) lactide [PDLLA] | No major differences |  |  |
| B1 |  | 13 | significant increase |
